The results in this text go back to patent publication US20020035246, “SMAD-interacting polypeptides and their use” (published 2002).

In the data set the target is T1, SIP1CZF (C-terminal zinc finger cluster of SIP1) (Mus musculus, UniProt Q9R0G7 SEQ:728-805).
T1 sequence: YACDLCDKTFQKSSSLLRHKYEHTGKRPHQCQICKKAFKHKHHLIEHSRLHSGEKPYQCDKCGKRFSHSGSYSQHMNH
Kind of data set: EMSA; competed by excess unlabeled self. The conditions noted are these: tags: GST fusion, E. coli; label: 32P. In general terms: In EMSA bound probe runs differently from free probe, usually more slowly.

B1: Brachyury binding site (dsDNA)
DNA 1: TGACACCTAGGTGTGAATT
DNA 2: AATTCACACCTAGGTGTCA
For the molecule B1, the binding result is reported as “binds”.
